Assay [1] concerns the target integrin αvβ3 receptor of αvβ3-positive melanoma tumors in C57BL/6 mice (UniProt P43406).
The target in assay [2] is RGD-recognising integrin receptors.
Assay [3] deals with RGD-recognising integrins. As to the kind of experiment: standard binding assay on cells (IC50); U-87 MG and SKOV-3 cancer models; the competing ligand is not named.
In assay [4] the target is T1, αvβ3 integrin receptors on tumor cells, P06756.
T1 chain 1: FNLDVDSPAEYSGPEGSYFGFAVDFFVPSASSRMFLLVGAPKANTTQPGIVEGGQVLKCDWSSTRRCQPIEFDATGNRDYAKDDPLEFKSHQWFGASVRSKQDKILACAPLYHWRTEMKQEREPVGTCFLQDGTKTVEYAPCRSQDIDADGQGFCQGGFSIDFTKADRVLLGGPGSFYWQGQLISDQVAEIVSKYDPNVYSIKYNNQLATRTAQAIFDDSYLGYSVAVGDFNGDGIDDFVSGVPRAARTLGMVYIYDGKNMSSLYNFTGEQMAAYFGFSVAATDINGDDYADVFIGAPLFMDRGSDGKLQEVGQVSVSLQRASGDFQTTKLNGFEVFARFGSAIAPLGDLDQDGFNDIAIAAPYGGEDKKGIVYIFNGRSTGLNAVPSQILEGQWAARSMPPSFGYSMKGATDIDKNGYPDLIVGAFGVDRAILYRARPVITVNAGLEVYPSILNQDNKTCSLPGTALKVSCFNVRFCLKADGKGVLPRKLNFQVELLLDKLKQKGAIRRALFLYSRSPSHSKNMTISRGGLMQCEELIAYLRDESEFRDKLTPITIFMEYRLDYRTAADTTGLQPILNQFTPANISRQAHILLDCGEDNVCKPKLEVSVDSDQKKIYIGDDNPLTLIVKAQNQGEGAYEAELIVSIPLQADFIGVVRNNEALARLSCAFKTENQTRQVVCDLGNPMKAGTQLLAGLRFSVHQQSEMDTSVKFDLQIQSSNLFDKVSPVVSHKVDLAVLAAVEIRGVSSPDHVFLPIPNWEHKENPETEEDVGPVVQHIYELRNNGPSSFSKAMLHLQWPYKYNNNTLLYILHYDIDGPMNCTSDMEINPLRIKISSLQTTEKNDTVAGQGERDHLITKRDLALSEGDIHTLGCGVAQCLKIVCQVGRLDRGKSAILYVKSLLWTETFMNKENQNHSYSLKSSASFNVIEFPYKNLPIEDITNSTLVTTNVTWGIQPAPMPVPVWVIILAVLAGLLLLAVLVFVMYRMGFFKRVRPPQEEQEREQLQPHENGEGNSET
T1 chain 2: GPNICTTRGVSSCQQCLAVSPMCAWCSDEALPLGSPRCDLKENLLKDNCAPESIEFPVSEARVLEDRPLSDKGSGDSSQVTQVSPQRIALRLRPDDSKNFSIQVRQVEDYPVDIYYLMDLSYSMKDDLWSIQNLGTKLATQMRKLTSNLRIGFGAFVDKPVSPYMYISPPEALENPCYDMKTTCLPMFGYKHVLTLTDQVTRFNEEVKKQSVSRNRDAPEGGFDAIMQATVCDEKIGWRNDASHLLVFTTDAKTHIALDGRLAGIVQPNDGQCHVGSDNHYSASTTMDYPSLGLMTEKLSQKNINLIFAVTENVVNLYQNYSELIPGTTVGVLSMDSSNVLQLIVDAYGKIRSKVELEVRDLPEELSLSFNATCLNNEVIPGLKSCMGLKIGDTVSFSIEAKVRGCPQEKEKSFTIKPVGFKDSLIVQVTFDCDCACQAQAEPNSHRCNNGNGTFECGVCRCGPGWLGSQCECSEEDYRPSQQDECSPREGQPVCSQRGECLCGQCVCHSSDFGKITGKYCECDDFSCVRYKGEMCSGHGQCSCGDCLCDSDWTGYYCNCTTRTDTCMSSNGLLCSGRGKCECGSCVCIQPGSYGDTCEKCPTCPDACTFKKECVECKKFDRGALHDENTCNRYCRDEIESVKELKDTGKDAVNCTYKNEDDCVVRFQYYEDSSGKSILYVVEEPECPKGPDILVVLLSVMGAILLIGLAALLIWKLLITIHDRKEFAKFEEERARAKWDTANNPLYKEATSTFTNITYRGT
As to the kind of experiment: real-time quantification of cell binding with Ligand Tracer; 68Ga-labelled cyclo-RGD peptides on tumor cells (AR42J and U87MG named). The following applies: remark: other sources report otherwise.

Primed or numbered codes have the meaning given here. Side-chain parts run from the residue outwards. [ ]: non-standard residue; d: D form. PEG7′ = not defined here; Pra = C#CC[C@H](N)C(=O)O; Tz = not defined here Where only a bound is given, the exact number is not on record here.

In assay [1], cyclo(RGD[dF]K) (not fully specified (residue 5); also: 99mTc(CO)3 complex) [99mTc(CO)3-Pra-Tz-CH2-cRGDfK] had a tumor uptake in C57BL/6 mice bearing αvβ3-positive melanoma tumors, maximum at 30 min p.i. (30, 60, 180 min); reduced to 50-60% by cold cRGDfK peptide of 3.01 %ID/g.

With cyclo(RGD[dF]K([PEG7′-Tz-Pra])) (reading uncertain; also: 99mTc(CO)3 complex) [99mTc(CO)3-Pra-Tz-PEG7-cRGDfK], the tumor uptake in C57BL/6 mice bearing αvβ3-positive melanoma tumors, maximum at 30 min p.i. (30, 60, 180 min); reduced to 50-60% by cold cRGDfK peptide in assay [1] came to 4.11 %ID/g.

B1: FPyPEGCBT-c(RGDfK) (peptide)
peptide: cyclo(RGD[dF]K)
modifications: also: cysteine-modified, cysteine site not given here, FPyPEGCBT condensed with that cysteine, 18F in the tracer
In assay [2], B1 showed a tumour uptake 1 h after injection in mice bearing subcutaneous SKOV-3 tumours of 2.4 %ID/g and a tumour uptake 1 h after injection in mice bearing subcutaneous U-87 MG tumours of 2.9 %ID/g. This molecule also returned a 50% inhibitory concentration (IC50) in assay [3] of 3080 nM. Turning to cyclo(RGD[dF]V) [control c(RGDfV) peptide], the IC50 in assay [3] was 600 nM. Regarding cyclo(RGD[dF]K) (also: two c(RGDfK) copies on a Glu core, DOTA chelator, 68Ga label) [68Ga-DOTA-E-[c(RGDfK)2]], in assay [4], the retention on cells is less than 58%.

The values above are taken from PMC5843810, “18th European Symposium on Radiopharmacy and Radiopharmaceuticals” (EJNMMI Radiopharmacy and Chemistry, 2016).
